What was measured:
[1] = target: human leukocyte antigen-G (HLA-G) recombinant protein (human) (UniProt P17693); assay: SPR kinetics, HLA-G as immobilised ligand; comparator panel at the right
[2] = target: CD3ε (CD3 epsilon) recombinant protein (UniProt P07766); assay: SPR kinetics, CD3ε as immobilised ligand; comparator panel at the right

Kd [1] [nM]	Kd [2] [nM]	Substance
8.69		Anti-human HLA-G Antibody (87G)
	7.68	Muromonab-CD3 (antibody)

From US20220306748A1
